# In article PMC12460158, “Structural basis of fast N-type inactivation in Kv channels” (Nature, 2025):
# Ends that are not written are not given here.
# B1: full-length E12K/D13K AcA-EI Shaker Kv channel (enhanced inactivation mutant, initiator Met removed, Ala2 acetylated) (natural protein, Drosophila melanogaster, UniProt P08510 2-655, looked up)
# chain: AAVAGLYGLGKKRQHRKKQQQQQQHQKEQLEQKEEQKKIAERKLQLREQQLQRNSLDGYGSLPKLSSQDEEGGAGHGFGGGPQHFEPIPHDHDFCERVVINVSGLRFETQLRTLNQFPDTLLGDPARRLRYFDPLRNEYFFDRSRPSFDAILYYYQSGGRLRRPVNVPLDVFSEEIKFYELGDQAINKFREDEGFIKEEERPLPDNEKQRKVWLLFEYPESSQAARVVAIISVFVILLSIVIFCLETLPEFKHYKVFNTTTNGTKIEEDEVPDITDPFFLIETLCIIWFTFELTVRFLACPNKLNFCRDVMNVIDIIAIIPYFITLATVVAEEEDTLNLPKAPVSPQDKSSNQAMSLAILRVIRLVRVFRIFKLSRHSKGLQILGRTLKASMRELGLLIFFLFIGVVLFSSAVYFAEAGSENSFFKSIPDAFWWAVVTMTTVGYGDMTPVGVWGKIVGSLCAIAGVLTIALPVPVIVSNFNYFYHRETDQEEMQSQNFNHVTSCPYLPGTLGQHMKKSSLSESSSDMMDLDDGVESTPGLTETHPGRSAVAPFLGAQQQQQQPVASSLSMSIDKQLQHPLQQLTQTQLYQQQQQQQQQQQNGFKQQQQQTQQQLQQQQSHTINASAAAATSGSGSSGLTMRHNNALAVSIETDV
# modifications: acetyl on the N-terminal Ala2 (initiator Met removed), by mass spectrometry
# notes: Shaker Kv channel, Drosophila melanogaster; Residues of the TEV site may remain at the C terminus (surmise); not shown: mVenus, C-terminal, cleaved; polyhistidine, C-terminal, cleaved
# Assays:
# [1] = molecular target: B1; assay: cryo-EM structure; AcA-EI Shaker in MSP1E3D1 lipid nanodiscs, 4 mM KCl, 46 mM NaCl, incubated with 1 mM free acetylated N-terminal peptide for 30 min before grid preparation; C1; conditions: both partners purified
# [2] = molecular target: the molecule itself; assay: cryo-EM structure; channel in MSP1E3D1 lipid nanodiscs (POPC:POPG:POPE 3:1:1), 20 mM Tris pH 7.5, 4 mM KCl, 46 mM NaCl; C4 refinement and focused classification in C1
binding result [1],Binder,binding result [2]
binds,"Ac-AAVAGLYGLGKKRQHRKKQ (N terminus of the Shaker Kv channel without the initiator Met, with the E12K and D13K changes of EI Shaker; molecular weight 2,151 Da; also called additional N-terminal peptide; source: synthetic peptide (GenScript)) [acetylated free N-terminal peptide of EI Shaker (Ac-AAVAGLYGLGKKRQHRKKQ)]",
,"GT Shaker Kv channel (N-terminally mVenus tagged Shaker after TEV cleavage, with additional Gly and Thr on the N terminus) (natural protein, Drosophila melanogaster, two additional residues (Gly and Thr) left on the N terminus after removal of the mVenus tag with TEV protease, confirmed by mass spectrometry; Shaker Kv channel, Drosophila melanogaster, full-length gene; the N-terminal Met stands at position 3 of this construct; Purified by the N-terminal tag, so at least one N terminus is intact in each tetramer; other N termini may be truncated by …) GTMAAVAGLYGLGEDRQHRKKQQQQQQHQKEQLEQKEEQKKIAERKLQLREQQLQRNSLDGYGSLPKLSSQDEEGGAGHGFGGGPQHFEPIPHDHDFCERVVINVSGLRFETQLRTLNQFPDTLLGDPARRLRYFDPLRNEYFFDRSRPSFDAILYYYQSGGRLRRPVNVPLDVFSEEIKFYELGDQAINKFREDEGFIKEEERPLPDNEKQRKVWLLFEYPESSQAARVVAIISVFVILLSIVIFCLETLPEFKHYKVFNTTTNGTKIEEDEVPDITDPFFLIETLCIIWFTFELTVRFLACPNKLNFCRDVMNVIDIIAIIPYFITLATVVAEEEDTLNLPKAPVSPQDKSSNQAMSLAILRVIRLVRVFRIFKLSRHSKGLQILGRTLKASMRELGLLIFFLFIGVVLFSSAVYFAEAGSENSFFKSIPDAFWWAVVTMTTVGYGDMTPVGVWGKIVGSLCAIAGVLTIALPVPVIVSNFNYFYHRETDQEEMQSQNFNHVTSCPYLPGTLGQHMKKSSLSESSSDMMDLDDGVESTPGLTETHPGRSAVAPFLGAQQQQQQPVASSLSMSIDKQLQHPLQQLTQTQLYQQQQQQQQQQQNGFKQQQQQTQQQLQQQQSHTINASAAAATSGSGSSGLTMRHNNALAVSIETDV",binds
,B1,binds
,"full-length wild-type (WT) Shaker Kv channel, C-terminally mVenus tagged, tag removed (natural protein, Drosophila melanogaster, UniProt P08510 1-655, looked up, Shaker Kv channel, Drosophila melanogaster, full-length gene; Residues of the TEV site may remain at the C terminus (surmise); also called C-terminally tagged WT Shaker; C-terminal mVenus-tagged Shaker; not shown: mVenus, C-terminal, cleaved; polyhistidine, C-terminal, cleaved) MAAVAGLYGLGEDRQHRKKQQQQQQHQKEQLEQKEEQKKIAERKLQLREQQLQRNSLDGYGSLPKLSSQDEEGGAGHGFGGGPQHFEPIPHDHDFCERVVINVSGLRFETQLRTLNQFPDTLLGDPARRLRYFDPLRNEYFFDRSRPSFDAILYYYQSGGRLRRPVNVPLDVFSEEIKFYELGDQAINKFREDEGFIKEEERPLPDNEKQRKVWLLFEYPESSQAARVVAIISVFVILLSIVIFCLETLPEFKHYKVFNTTTNGTKIEEDEVPDITDPFFLIETLCIIWFTFELTVRFLACPNKLNFCRDVMNVIDIIAIIPYFITLATVVAEEEDTLNLPKAPVSPQDKSSNQAMSLAILRVIRLVRVFRIFKLSRHSKGLQILGRTLKASMRELGLLIFFLFIGVVLFSSAVYFAEAGSENSFFKSIPDAFWWAVVTMTTVGYGDMTPVGVWGKIVGSLCAIAGVLTIALPVPVIVSNFNYFYHRETDQEEMQSQNFNHVTSCPYLPGTLGQHMKKSSLSESSSDMMDLDDGVESTPGLTETHPGRSAVAPFLGAQQQQQQPVASSLSMSIDKQLQHPLQQLTQTQLYQQQQQQQQQQQNGFKQQQQQTQQQLQQQQSHTINASAAAATSGSGSSGLTMRHNNALAVSIETDV",binds
